Reference: article PMC9482650, “Quantitative fragmentomics allow affinity mapping of interactomes” (Nature Communications, 2022)

T1: CNKSR1, Q969H4
T1 sequence (Q969H4 191-295, limits assumed, looked up): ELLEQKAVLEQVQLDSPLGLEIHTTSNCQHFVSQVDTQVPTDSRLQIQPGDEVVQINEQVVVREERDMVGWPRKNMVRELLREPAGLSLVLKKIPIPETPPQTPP

T2: MPDZ_2, O75970
T2 sequence (O75970 252-347, limits assumed, looked up): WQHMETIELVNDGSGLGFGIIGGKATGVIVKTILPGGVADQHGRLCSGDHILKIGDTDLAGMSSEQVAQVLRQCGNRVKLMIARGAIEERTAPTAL

T3: MPDZ_3, O75970
T3 sequence (O75970 372-473, limits assumed, looked up): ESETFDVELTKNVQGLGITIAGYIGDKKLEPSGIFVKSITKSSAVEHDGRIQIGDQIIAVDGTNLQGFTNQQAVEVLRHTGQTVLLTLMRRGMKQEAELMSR

T4: MPDZ_7, O75970
T4 sequence (O75970 1146-1253, limits assumed, looked up): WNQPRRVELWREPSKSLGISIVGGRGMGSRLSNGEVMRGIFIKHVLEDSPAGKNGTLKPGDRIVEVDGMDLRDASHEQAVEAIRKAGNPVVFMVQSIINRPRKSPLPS

T5: PDZD11, Q5EBL8
T5 sequence (Q5EBL8 42-139, limits assumed, looked up): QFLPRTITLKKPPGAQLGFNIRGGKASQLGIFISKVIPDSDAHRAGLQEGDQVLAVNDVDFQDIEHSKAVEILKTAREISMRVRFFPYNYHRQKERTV

T6: PDZD2_5, O15018
T6 sequence (O15018 2617-2716, limits assumed, looked up): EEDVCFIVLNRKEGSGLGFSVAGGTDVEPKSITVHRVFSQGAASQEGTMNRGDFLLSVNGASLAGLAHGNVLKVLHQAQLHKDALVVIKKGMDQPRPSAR

T7: PDZRN3_2, Q9UPQ7
T7 sequence (Q9UPQ7 414-513, limits assumed, looked up): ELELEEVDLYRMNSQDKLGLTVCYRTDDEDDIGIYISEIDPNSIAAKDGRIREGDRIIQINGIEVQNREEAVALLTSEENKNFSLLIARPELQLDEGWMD

T8: PREX2_2, Q70Z35
T8 sequence (Q70Z35 672-764, limits assumed, looked up): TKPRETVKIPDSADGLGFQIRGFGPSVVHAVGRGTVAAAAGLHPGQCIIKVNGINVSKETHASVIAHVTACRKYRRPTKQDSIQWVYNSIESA

T9: PTPN13_4, Q12923
T9 sequence (Q12923 1783-1878, limits assumed, looked up): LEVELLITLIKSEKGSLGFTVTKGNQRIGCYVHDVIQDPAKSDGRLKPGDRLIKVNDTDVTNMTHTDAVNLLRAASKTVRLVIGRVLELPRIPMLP

T10: PTPN13_5, Q12923
T10 sequence (Q12923 1877-1975, limits assumed, looked up): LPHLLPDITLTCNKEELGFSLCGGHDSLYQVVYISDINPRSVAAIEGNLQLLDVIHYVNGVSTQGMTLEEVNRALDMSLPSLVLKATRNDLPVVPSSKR

T11: SHROOM4, Q9ULL8
T11 sequence (Q9ULL8 5-102, limits assumed, looked up): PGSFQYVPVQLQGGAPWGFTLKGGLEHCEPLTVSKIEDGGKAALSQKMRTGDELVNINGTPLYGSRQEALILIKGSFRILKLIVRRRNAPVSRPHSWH

T12: SYNPO2L, Q9H987
T12 sequence (Q9H987 1-98, limits assumed, looked up): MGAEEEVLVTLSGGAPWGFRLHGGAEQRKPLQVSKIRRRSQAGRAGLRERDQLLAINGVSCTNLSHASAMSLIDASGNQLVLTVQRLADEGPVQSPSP

T13: TJP3_1, O95049
T13 sequence (O95049 6-103, limits assumed, looked up): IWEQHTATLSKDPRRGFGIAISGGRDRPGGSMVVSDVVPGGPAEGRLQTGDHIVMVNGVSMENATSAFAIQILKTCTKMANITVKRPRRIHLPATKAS

B1: DOCK4, Q8N1I0 (peptide)
chain: RPLPRKVSQL
B2: HPV59-E6, Q81964 (peptide)
chain: QRQARSETLV
B3: HPV73-E6, Q82005 (peptide)
chain: SGSRPSATVV

How the values were obtained:
Test in all cases: holdup assay
Parameters in all cases: key: below the threshold = too weak to quantify, mostly under pKd 3.1 to 4
Details in all cases: plain residues with an end cap or a label only (N-terminal biotin on a linker: ttds)
CNKSR1, Q969H4 = molecular target: T1, CNKSR1, Q969H4
GRIP2_2, Q9C0E4 = molecular target: GRIP2_2, Q9C0E4
MAGI1_3, Q96QZ7 = molecular target: MAGI1_3, Q96QZ7
MAGI1_6, Q96QZ7 = molecular target: MAGI1_6, Q96QZ7
MAGI3_4, Q5TCQ9 = molecular target: MAGI3_4, Q5TCQ9
MPDZ_2, O75970 = molecular target: T2, MPDZ_2, O75970
MPDZ_3, O75970 = molecular target: T3, MPDZ_3, O75970
MPDZ_7, O75970 = molecular target: T4, MPDZ_7, O75970
NHERF4_3, Q86UT5 = molecular target: NHERF4_3, Q86UT5
PARD3B_3, Q8TEW8 = molecular target: PARD3B_3, Q8TEW8
PDLIM4, P50479 = molecular target: PDLIM4, P50479
PDZD11, Q5EBL8 = molecular target: T5, PDZD11, Q5EBL8
PDZD2_5, O15018 = molecular target: T6, PDZD2_5, O15018
PDZRN3_2, Q9UPQ7 = molecular target: T7, PDZRN3_2, Q9UPQ7
PDZRN4_2, Q6ZMN7 = molecular target: PDZRN4_2, Q6ZMN7
PREX2_2, Q70Z35 = molecular target: T8, PREX2_2, Q70Z35
PTPN13_4, Q12923 = molecular target: T9, PTPN13_4, Q12923
PTPN13_5, Q12923 = molecular target: T10, PTPN13_5, Q12923
Q9UDY2 = molecular target: Q9UDY2
Q9Y3R0 = molecular target: Q9Y3R0
SHROOM4, Q9ULL8 = molecular target: T11, SHROOM4, Q9ULL8
SYNPO2L, Q9H987 = molecular target: T12, SYNPO2L, Q9H987
TJP3_1, O95049 = molecular target: T13, TJP3_1, O95049
LIMK1, P53667 = molecular target: LIMK1, P53667
Sequence of LIMK1, P53667 (P53667 155-268): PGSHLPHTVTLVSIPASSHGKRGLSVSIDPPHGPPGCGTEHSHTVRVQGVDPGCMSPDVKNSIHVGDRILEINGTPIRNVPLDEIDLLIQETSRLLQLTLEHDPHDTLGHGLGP

Sequence of GRIP2_2, Q9C0E4 (Q9C0E4 137-245): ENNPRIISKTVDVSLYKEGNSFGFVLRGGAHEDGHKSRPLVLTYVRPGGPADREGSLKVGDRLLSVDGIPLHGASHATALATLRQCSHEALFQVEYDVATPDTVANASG
Sequence of PDZRN4_2, Q6ZMN7 (Q6ZMN7 389-498): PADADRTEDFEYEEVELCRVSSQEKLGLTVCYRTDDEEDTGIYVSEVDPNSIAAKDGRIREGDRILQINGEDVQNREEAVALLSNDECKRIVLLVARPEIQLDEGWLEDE
Sequence of PDLIM4, P50479 (P50479 1-83): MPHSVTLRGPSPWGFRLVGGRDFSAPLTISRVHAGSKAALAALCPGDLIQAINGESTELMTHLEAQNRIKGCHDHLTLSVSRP
Sequence of MAGI1_3, Q96QZ7 (Q96QZ7 638-725): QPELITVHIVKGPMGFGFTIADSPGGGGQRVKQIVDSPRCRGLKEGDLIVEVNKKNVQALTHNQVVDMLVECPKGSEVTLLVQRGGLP
Sequence of MAGI1_6, Q96QZ7 (Q96QZ7 1146-1238): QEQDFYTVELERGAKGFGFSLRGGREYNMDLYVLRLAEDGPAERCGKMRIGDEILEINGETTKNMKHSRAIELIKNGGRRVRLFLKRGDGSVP
Sequence of MAGI3_4, Q5TCQ9 (Q5TCQ9 716-815): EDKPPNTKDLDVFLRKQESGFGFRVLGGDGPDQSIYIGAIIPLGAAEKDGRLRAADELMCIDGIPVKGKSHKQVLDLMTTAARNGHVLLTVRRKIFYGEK
Sequence of PARD3B_3, Q8TEW8 (Q8TEW8 490-594): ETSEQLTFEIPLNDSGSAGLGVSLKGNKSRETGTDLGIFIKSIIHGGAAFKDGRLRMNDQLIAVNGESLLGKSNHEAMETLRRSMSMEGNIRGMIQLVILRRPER
Sequence of NHERF4_3, Q86UT5 (Q86UT5 325-412): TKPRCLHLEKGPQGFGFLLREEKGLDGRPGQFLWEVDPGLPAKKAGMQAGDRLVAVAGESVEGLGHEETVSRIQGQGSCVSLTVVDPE

Binder | pKd (CNKSR1, Q969H4) | pKd (GRIP2_2, Q9C0E4) | pKd (MAGI1_3, Q96QZ7) | pKd (MAGI1_6, Q96QZ7) | pKd (MAGI3_4, Q5TCQ9) | pKd (MPDZ_3, O75970) | pKd (MPDZ_7, O75970) | pKd (NHERF4_3, Q86UT5) | pKd (PARD3B_3, Q8TEW8) | pKd (PDLIM4, P50479) | pKd (PDZD11, Q5EBL8) | pKd (PDZD2_5, O15018) | pKd (PDZRN3_2, Q9UPQ7) | pKd (PDZRN4_2, Q6ZMN7) | pKd (PREX2_2, Q70Z35) | pKd (PTPN13_4, Q12923) | pKd (PTPN13_5, Q12923) | pKd (SHROOM4, Q9ULL8) | pKd (SYNPO2L, Q9H987) | pKd (TJP3_1, O95049) | further results
B1 | below the threshold | 4.25 | below the threshold | below the threshold | 4.12 | below the threshold | below the threshold | 4.21 | below the threshold | below the threshold | below the threshold | below the threshold | below the threshold | 4.14 | below the threshold | below the threshold | below the threshold | below the threshold | below the threshold | below the threshold | pKd (MPDZ_2, O75970): below the threshold; pKd (Q9UDY2): below the threshold; pKd (Q9Y3R0): below the threshold
B2 | below the threshold | below the threshold | 5.25 | below the threshold | below the threshold | below the threshold | 4.28 | 4.28 | below the threshold | below the threshold | below the threshold | below the threshold | below the threshold | below the threshold | below the threshold | 4.42 | 4.52 | below the threshold | below the threshold | below the threshold | pKd (LIMK1, P53667): below the threshold; pKd (MPDZ_2, O75970): below the threshold; pKd (Q9UDY2): below the threshold; pKd (Q9Y3R0): below the threshold
B3 | below the threshold | below the threshold | below the threshold | below the threshold | below the threshold | below the threshold | below the threshold | below the threshold | below the threshold | below the threshold | below the threshold | below the threshold | below the threshold | below the threshold | below the threshold | below the threshold | below the threshold | below the threshold | below the threshold | 4.21 | pKd (LIMK1, P53667): below the threshold
